Patent US20130012436A1 (Bristol-Myers Squibb, published 2013)
Positions count from the first letter of the chain named.

T1: human IL-23 (human, UniProt Q9NPF7 20-189; P29460 23-328)
T1 sequence (looked up) 1: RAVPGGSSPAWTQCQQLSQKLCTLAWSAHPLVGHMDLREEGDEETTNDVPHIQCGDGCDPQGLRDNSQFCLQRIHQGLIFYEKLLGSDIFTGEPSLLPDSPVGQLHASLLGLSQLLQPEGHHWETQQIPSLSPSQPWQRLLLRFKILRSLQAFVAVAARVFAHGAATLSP
T1 sequence (looked up) 2: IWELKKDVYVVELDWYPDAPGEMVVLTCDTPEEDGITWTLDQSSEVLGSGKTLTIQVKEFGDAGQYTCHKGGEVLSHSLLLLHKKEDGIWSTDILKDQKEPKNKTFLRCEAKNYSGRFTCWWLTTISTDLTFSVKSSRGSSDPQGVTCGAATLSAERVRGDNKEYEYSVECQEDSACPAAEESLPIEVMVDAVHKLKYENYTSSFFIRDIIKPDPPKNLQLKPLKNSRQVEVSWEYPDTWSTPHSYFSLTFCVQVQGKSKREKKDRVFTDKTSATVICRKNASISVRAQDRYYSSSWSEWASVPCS

B1: 1434A08 (designed binder)
chain: MGVSDVPRDLEVVAATPTSLLISWGHYPMHVRYYRITYGETGGNSPVQEFTVPHRTHTATISGLKPGVDYTITVYAVTYYNEADYSQIPISINYRTEIDKPSQHHHHHH
B2: 1572H08 (designed binder)
chain: B1 chain with M29L, H54S, T56K, H57Y
notes: captured by anti-His mAb
B3: 1438D01 (designed binder)
chain: B1 chain with H54N, T56A
B4: 1438A09 (designed binder)
chain: B1 chain with H54R, R55S, T56R, H57Y
B5: 1438E05 (designed binder)
chain: B1 chain with H54S, R55N, T56V
B6: 1438B02 (designed binder)
chain: B1 chain with H54R, R55K, H57Y
B7: 1487C03 (designed binder)
chain: B1 chain with M29L, V31I, H54K, R55Q, T56V, H57Y
notes: captured by anti-His mAb
B8: 1571F10 (designed binder)
chain: B1 chain with M29L, V31I, H54S, T56Y, N81E, E82Q, A83V, D84E, S86R, Q87E
notes: captured by anti-His mAb
B9: 1486D04 (designed binder)
chain: B1 chain with M29L, V31I, H54R, R55S
notes: captured by anti-His mAb
B10: 1550C05 (designed binder)
chain: B1 chain with H54P, T56R, H57Y
notes: captured by anti-His mAb
B11: 1486B05 (designed binder)
chain: B1 chain with H54S, T56I, H57Y
notes: captured by anti-His mAb
B12: 1486G03 (designed binder)
chain: B1 chain with H54S, T56Y, H57Y
notes: captured by anti-His mAb
B13: 1550 E03 (designed binder)
chain: B1 chain with M29L, V31I, H54R, R55M, T56R, N81S, A83E, D84L, S86K, Q87Y
notes: captured by anti-His mAb
B14: 1572D04 (designed binder)
chain: B1 chain with H54P, T56R, H57Y, N81E, E82Q, A83P, D84I, S86A, Q87T
notes: captured by anti-His mAb
B15: 1437A09 (designed binder)
chain: B1 chain with H54S, R55K, T56Q
notes: captured by anti-His mAb
B16: 1550A07 (designed binder)
chain: B1 chain with H54V, R55P, T56R, H57Y, N81A, E82Q, A83E, D84N, S86K, Q87E
notes: captured by anti-His mAb
B17: 1487H04 (designed binder)
chain: B1 chain with H54A, T56Q, H57Y, N81Q, A83Y, D84E, S86R, Q87Y
notes: captured by anti-His mAb
B18: 1490H08 (designed binder)
chain: B1 chain with M29L, V31I, H54N, R55T, T56S
notes: captured by anti-His mAb
B19: 1490G02 (designed binder)
chain: B1 chain with H54P, T56Y, N81M, A83E, D84K, S86A, Q87V
notes: captured by anti-His mAb
B20: 1550H05 (designed binder)
chain: B1 chain with M29L, H54R, R55Q, T56I, H57Y
notes: captured by anti-His mAb
B21: 1572B10 (designed binder)
chain: B1 chain with H54V, R55P, T56R
notes: captured by anti-His mAb
B22: 1487D09 (designed binder)
chain: B1 chain with V31I, H54R, R55S, T56R
notes: captured by anti-His mAb
B23: 1486D05 (designed binder)
chain: B1 chain with M29L, R55Q, T56R, H57Y
notes: captured by anti-His mAb
B24: 1437G04 (designed binder)
chain: B1 chain with M29L, H54Y, R55Y, T56H, H57Y
notes: captured by anti-His mAb
B25: 1486C04 (designed binder)
chain: B1 chain with H54P, R55H, T56R, H57Y
notes: captured by anti-His mAb
B26: 1490C07 (designed binder)
chain: B1 chain with M29L, H54S, R55N, T56R, H57Y
notes: captured by anti-His mAb
B27: 1572F05 (designed binder)
chain: B1 chain with M29L, V31I, H54R, R55Q, T56K, H57Y
notes: captured by anti-His mAb
B28: 1487G03 (designed binder)
chain: B1 chain with M29L, H54A, R55H, T56R, H57Y
notes: captured by anti-His mAb
B29: 1490A07 (designed binder)
chain: MGVSDVPRDLEVVAATPTSLLISWGHYPLHIRYYRITYGETGGNSPVQEFTVPHAKYTATISGLKPGVDYTITVYAVTYYAQENYKEIPISINYRTEIDKPSQHHHHHH
notes: captured by anti-His mAb
B30: 1491A05 (designed binder)
chain: B29 chain with I31V, H54S, A55Q, K56V
notes: captured by anti-His mAb
B31: 1490 E02 (designed binder)
chain: B1 chain with H54R, R55T, T56Q, H57Y
notes: captured by anti-His mAb
B32: 1490H06 (designed binder)
chain: B1 chain with M29L, V31I, H54R, R55Q, T56K, H57Y
notes: captured by anti-His mAb

How the values were obtained:
human IL-23 [1] = molecular target: T1, human IL-23; test: cell-based or functional assay
human IL-23 [2] = molecular target: T1, human IL-23; test: SPR, Adnectin captured by anti-His mAb, IL-23 injected
Method: All surface plasmon experiments were conducted in HBS-EP (10 mM Hepes 150 mM NaCl 3 mM EDTA 0.05% Surfactant P20) at 25° C. IL-23 was injected over anti-His mAb captured Adnectins for 2 minutes followed by a 10 minute dissociation phase. Evaluation of the binding specificity was completed using Biacore T100 evaluation software. Additional detailed methods are described in Example 4.

| Binder | Kit 225 pSTAT3 IC50 (nM) (human IL-23 [1]) | kon (human IL-23 [2]) [M⁻¹ s⁻¹] | Kd (human IL-23 [2]) [nM] | koff (human IL-23 [2]) [s⁻¹] |
| --- | --- | --- | --- | --- |
| B1 | 4.9 | – | – | – |
| B2 | 2.8 | 57300 | – | – |
| B3 | 11.4 | – | – | – |
| B4 | 10.8 | – | – | – |
| B5 | 39.6 | – | – | – |
| B6 | 8.6 | – | – | – |
| B7 | 3.7 | 161000 | 2.4 | 0.000382 |
| B8 | 0.1 | 268000 | – | – |
| B9 | 2 | 151000 | 2.3 | 0.000352 |
| B10 | 16.8 | 65900 | 2.1 | 0.000135 |
| B11 | 4 | 134000 | 2.8 | 0.000381 |
| B12 | 3 | 86200 | 4.9 | 0.000425 |
| B13 | 5.3 | 99500 | 1.9 | 0.000186 |
| B14 | 4 | 103000 | 2.9 | 0.000294 |
| B15 | 20.2 | 80600 | 5.7 | 0.00046 |
| B16 | 1 | 117000 | 1.1 | 0.000133 |

| Binder | Kit 225 pSTAT3 IC50 (nM) (human IL-23 [1]) | kon (human IL-23 [2]) [M⁻¹ s⁻¹] | Kd (human IL-23 [2]) [nM] | koff (human IL-23 [2]) [s⁻¹] |
| --- | --- | --- | --- | --- |
| B17 | 2 | 59600 | – | – |
| B18 | – | 167000 | 3.5 | 0.000587 |
| B19 | 0.4 | 197000 | 1.7 | 0.000332 |
| B20 | 1.5 | 65200 | 3.3 | 0.000212 |
| B21 | 0.8 | 65300 | – | – |
| B22 | 2 | 150000 | 1.7 | 0.00025 |
| B23 | 4 | 120000 | 2.9 | 0.000344 |
| B24 | 3.3 | 134000 | 3.3 | 0.000446 |
| B25 | 31.9 | 112000 | 3.4 | 0.000379 |
| B26 | 5.6 | 95600 | 4.5 | 0.000426 |
| B27 | 3 | 132000 | 2.2 | 0.000285 |
| B28 | 3 | 103000 | 3.1 | 0.000316 |
| B29 | 0.6 | 163000 | – | – |
| B30 | 0.3 | 198000 | 2.1 | 0.000408 |
| B31 | – | 97300 | 4.8 | 0.000465 |
| B32 | 2.3 | 93500 | – | – |
